Measured values as given in the DeepSol protein solubility set.

test: soluble on expression in E. coli; label from the status in PepcDB or PDB records

Sequence	soluble on expression in E. coli
MSLANIKEIARLANVSVSTVSRVLNHHPYVSEEKRKLVHQVMKELDYTPNRTAIDLIRGKTHTVGVILPYSDHPCFDKIVNGITKAAFQHEYATTLLPTNYNPDIEIKYLELLRTKKIDGLIITSRANHWDSILAYQEYGPVIACEDTGDIDVPCAFNDRKTAYAESFRYLKSRGHENIAFTCVREADRSPSTADKAAAYKAVCGRLEDRHMLSGCNDMNDGELAAEHFYMSGRVPTAIYANSDEVAAGIHLFAKKNNWDVEIIGEGNTSISRVLGFPSLDLNLEQLGIAAFSLFLQDEPADIKIQHKFKKKAEGHHHHHH	soluble
MGSDKIHHHHHHMSEAPHLTFDLDTPGVSTGHLVVPKGADCEALSLPVFSCNRGEGPSLLITGGNHGNELQGPILARRLVKWLPEAQRCGRIIIVPEINPLAVQAWTRNTPIDGKNLNRVFPGRSDGSVSERIADAISRLLLPVVDTVLDLHSFGPTWDCAPSIISHPIADIDQMTKTVSISKAFKLPVTLLWEHNETDGMFDTLVHRQGKTFICTEFGGGVVSAEALTIYEAGVRNGLIALGLVKGKAEYPTFRQQKTGQTLETTSSDQLKSPSPGIFEPRCSVMDEVEQGDVVGVLHPMGSLSAASIDIRAQSKSTVFAIRSAMYVQGNEEVAILARPLAR	not soluble
MGSDKIHHHHHHMIRNLTPSDFAQVISLGEQVHGANYLDLDTLKHYYQLGIKDGINAHFVAEQAGEIIGFRLTFTANQWTLDEWCSPALWGVEIDKVCYFKSNTLAEKARGQGIGGDLLAQSIAAVKAQGAKAGVSHLWKQSPHNAAVRYFTKAGGRLIKEHPGRWNQANDGSDYLCVLCGNDCHCTACEMLINF	not soluble
VVSIVDTLMFDTGRAEVKPDFQKKLVEIGEILKTIDNYIRIEGHTDNTPISNSQYASNIELGSARSNNVEHLFIDVSKIPVTQMYTVSYADTRPVADNNSEAGKARNRRVDIVILNSKFNAVEQESSGK	not soluble
GNSPQEEVELKKLKHLEKSVEKIADQLEELNKELTGIQQGFLPKDLQAEALCKLDRRVKATIEQFMKILEEIDTLILPENFKDSRLKRKGLVKKVQAFLAECDTVEQNICQETE	soluble
VEVLLGGDDGSLAFLPGDFSVASGEEIVFCNNAGFPHNVVFDEDEIPSGVDAAKISMSEEDLLNAPGECYKVTLTEKGTYKFYCSPHQGAGMVGKVTVN	soluble
MKARSKKSVGIVALALLMGKVYAAPTPAACPDVSVIKQHQEGQGFVYTAPAPNNQQWRGENPRGDAKDINSIAFKSANIRNRSAITGNAFVACDYEGNSSAGIRMSLETLKVATPVGKAWNGLSCSESNPSACTFEY	not soluble
MPSSGRGGAFFPDPCVFHGAYLPSGSSRWAKESTMFFIAKYKRNTEWLKMIFSNALHGVQEGSGFEWKAFVTLMPTELRVVSLSQELLRLWLVISYTVRDVRTYFFP	not soluble
MLILGLVISCGGSKDITLPNKNVKIEGDVLTFKGKPFTGNIKMNLADKMDGYAGAMSFKDGHLDGLTDLKNDKENQQVKFTVVDGKFDGELIMKDAKQRTDIVLDIKNGAIVKYLADVQGAYKYDLSFVDNLANGTMEAQGQKFEFKDGIAKGPQGQELKLTLDPESGDLTMEAMVNGKVAGKQTIPNVLTPQYLETFIFRAVTMTNR	not soluble
MGSDKIHHHHHHMGEYLTLPMEVYSGILVTHEGVFHGDLIVEEMAFEESRVEKDDFVISPTFFNAHTHLGDAALREAPRLDLVSIVGPGGYKHRMLSQIDSKTLRQEVELEVRISRDAGTSHFLDFREGGKAGLEIVKGIDGVLPLARPTSVEEAEEVEAFGFAYSSARDHDLKLMEEVREIARRRKMLFAIHAGEKDCADVDAALALEPDFVVHMNSCPEKIREFVEAEIPIVSCIRSNAFFGLLNKKSYELLSEYEKWMLGTDNAMISTASMLDEMHFAAYLIGKEKAILRAATASYAVFGFRHGYVVFNRNCSFRRTSDPLLTLVRRAGVKDIERVLIL	not soluble
MGFNVKTPLLATDVIIRLWDGENFKGIVLIERKYPPVGLALPGGFVEVGERVEEAAAREMREETGLEVRLHKLMGVYSDPERDPRAHVVSVVWIGDAQGEPKAGSDAKKVKVYRLEEIPLDKLVFDHKKIILDFLKGNY	soluble
MGSDKIHHHHHHMCRLLAYLGSPVSLEHLLYKPEHSLIVQSYKPREMTSGAVNADGFGVGWYHSQKDIEPFTYKNTLPIWNDINLLSLSRYIESKCVLAYVRSATSEQAVDFANCQPFKHQQQLFIHDGRIENFHKTLHRKIRSTLTQDFYEKINGNTDSEHIFALLLSQSQINKHRPPEYALRTTLLTLLEMAKRYQVEASINVIFSDGHRLIASRFATTSLAPSLYWVRDDPTFSNSVIIASEPLFIGNWNAFPENSIITVGADCEIQIEQI	not soluble
MEWAAKKTNSLTSSSERTWKANLLVPVEDPRELMGTFDFLRDITYPKGSVKLLGLAGNTDKENLLSQLPSISEGFQEEGVFSSWTIIDTAEFEENLVVGMEALTGSFFRPSILFLRLPENRDRDEEIREIIRKASMYRMGVLLFSKHPQAGLGRQNLINLWIENRGLDWDISMELGNMDLALLIAYKLKSNWKASLSFMTFAPTAIQAQAAENFLQSLAELARIPNVKMQVLRENPIKSSKLPFASLHIFSLDPNPDLDLARHLMEKAGSSCIFALDSGEENALALLEHHHHHH	soluble
MKKQKSFPMSAYEDLLGKITAPTITVENWEGILAFCDMINNDFEGSKTGIKSLRKRLNNRDPHVVLLAISVLDSCWANCEERFRKEVSSAQFINELKALCTSSQRQVAEKMRLTVQKWVDTECKTEQSLSLIVTLHKNLVADGYSFVVDDPKSKTKAIDAKFANDPNYVGSAQEEEAIAKAIAASLADAEKQEKAKKSTSTMYPSAKASSPAVQTNSNIPEKNVRALYDFEAAESNELSFVAGDIITITDESNPHWWTGRIGTQQGLFPSSFVTNQLDDLKSKETDSSQKAPEVVASINEAILVRCLQVLHECDPTGERQDPEDLAQLEAASYAQGNLIDAHLASIDRQSNSLAQIDVAIRDVLALYDDAIQKGGFQHQSQGMYQQPMQQYNYQQPPNRAYYPPTGPVQQQQPQQYPPQHYPAPGAQPQYACPPNSVPQPQQQQQQWPAPSSQPQQY	not soluble
MNMYRVIEMYGDFEPWWFLEGWEEDIVASRKFDQYYDALKYYKTCWFRLEQESPLYKSRSDLMTIFWDPEDQRWCDECDEYLQQYHSLALLQDEQVIPDEKLRSGYEKQTSQERNRSCRMKLKLEHHHHHH	soluble
MTLRAARPEFLDLFPAGAEARRLADGFTWTEGPVYVPARSAVIFSDVRQNRTWAWSDDGQLSPEMHPSHHQNGHCLNKQGHLIACSHGLRRLERQREPGGEWESIADSFEGKKLNSPNDVCLAPDGSLWFSDPTYGIDKPEEGYGGEMELPGRWVFRLAPDGTLSAPIRDRVKPNGLAFLPSGNLLVSDTGDNATHRYCLNARGETEYQGVHFTVEPGKTDGLRVDAGGLIWASAGDGVHVLTPDGDELGRVLTPQTTSNLCFGGPEGRTLYMTVSTEFWSIETNVRGLEHHHHHH	soluble
MSLEIHFEKVTSDNRKAVENLQVFAEQQAFIESMAENLKESDQFPEWESAGIYDGNQLIGYAMYGRWQDGRVWLDRFLIDQRFQGQGYGKAACRLLMLKLIEKYQTNKLYLSVYDTNSSAIRLYQQLGFVFNGELDTNGERVMEWTHQNKEGGSHHHHHH	soluble
AKNECHPERTDGCQHFCLPGQESYTCSCAQGYRLGEDHKQCVPHDQCACGVLTSEKRAPDLQDLPWQVKLTNSEGKDFCGGVIIRENFVLTTAKCSLLHRNITVKTYFNRTSQDPLMIKITHVHVHMRYDADAGENDLSLLELEWPIQCPGAGLPVCTPEKDFAEHLLIPRTRGLLSGWARNGTDLGNSLTTRPVTLVEGEECGQVLNVTVTTRTYCERSSVAAMHWMDGSVVTREHRGSWFLTGVLGSQPVGGQAHMVLVTKVSRYSLWFKQIMNAHHHHHH	soluble
